In paper PMC12748766, “Structural basis for human chondroitin sulfate chain polymerization” (Nature Communications, 2025):

What was measured:
Assay in all cases: mass photometry; Refeyn OneMP; purified complexes diluted in 20 mM MES pH 6.5, 150 mM NaCl to around 25 nM
Conditions in all cases: both partners purified
[1] = molecular target: T1, Chondroitin Sulfate Synthase-3 (CHSY3), secreted N-terminally truncated construct aa157-aa882 (human, UniProt Q70JA7 157-882)
T1 construct: CHSY3, human, UniProt Q70JA7, residues 157-882 (membrane-spanning helix removed); Construct in pHR-CMV-TetO2 with an N-terminal chicken RPTP sigma signal peptide, SUMO, 6x His and a 3C site; no cleavage site before the C-terminal Avi tag; source: Freestyle 293-F cells, co-transfected, secreted; purified from the supernatant (HisTrap, 3C protease, second HisTrap); not shown: SUMO, N-terminal, …
T1 sequence (looked up): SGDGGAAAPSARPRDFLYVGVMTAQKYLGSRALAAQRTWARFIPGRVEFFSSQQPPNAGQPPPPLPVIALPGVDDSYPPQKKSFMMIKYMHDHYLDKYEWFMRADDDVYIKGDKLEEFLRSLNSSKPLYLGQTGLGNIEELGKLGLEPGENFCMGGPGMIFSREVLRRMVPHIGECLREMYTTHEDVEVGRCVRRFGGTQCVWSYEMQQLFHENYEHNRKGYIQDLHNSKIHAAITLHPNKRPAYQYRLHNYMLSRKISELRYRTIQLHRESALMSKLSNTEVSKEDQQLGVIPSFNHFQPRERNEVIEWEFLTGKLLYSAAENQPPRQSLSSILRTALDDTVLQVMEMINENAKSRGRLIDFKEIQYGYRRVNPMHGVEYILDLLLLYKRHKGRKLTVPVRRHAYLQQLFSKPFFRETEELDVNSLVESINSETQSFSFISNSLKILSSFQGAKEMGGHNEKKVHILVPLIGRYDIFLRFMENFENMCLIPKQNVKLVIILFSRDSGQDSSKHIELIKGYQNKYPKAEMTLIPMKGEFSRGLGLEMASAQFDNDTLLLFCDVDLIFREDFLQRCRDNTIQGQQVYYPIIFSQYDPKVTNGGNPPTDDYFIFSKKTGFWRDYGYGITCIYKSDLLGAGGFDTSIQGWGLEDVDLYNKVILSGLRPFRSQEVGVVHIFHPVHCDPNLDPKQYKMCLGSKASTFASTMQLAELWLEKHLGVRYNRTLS

[2] = molecular target: T2, CHSY3^H394A, secreted construct aa157-aa882 (human, UniProt Q70JA7 157-882, H394A)
T2 construct: CHSY3, human, UniProt Q70JA7, residues 157-882, mutation in the N-terminal GT domain; source: Freestyle 293-F cells, co-transfected with CHPF, secreted; purified by the same protocol as the wild-type complexes; not shown: SUMO, N-terminal, cleaved; His6, N-terminal, cleaved
T2 sequence (looked up): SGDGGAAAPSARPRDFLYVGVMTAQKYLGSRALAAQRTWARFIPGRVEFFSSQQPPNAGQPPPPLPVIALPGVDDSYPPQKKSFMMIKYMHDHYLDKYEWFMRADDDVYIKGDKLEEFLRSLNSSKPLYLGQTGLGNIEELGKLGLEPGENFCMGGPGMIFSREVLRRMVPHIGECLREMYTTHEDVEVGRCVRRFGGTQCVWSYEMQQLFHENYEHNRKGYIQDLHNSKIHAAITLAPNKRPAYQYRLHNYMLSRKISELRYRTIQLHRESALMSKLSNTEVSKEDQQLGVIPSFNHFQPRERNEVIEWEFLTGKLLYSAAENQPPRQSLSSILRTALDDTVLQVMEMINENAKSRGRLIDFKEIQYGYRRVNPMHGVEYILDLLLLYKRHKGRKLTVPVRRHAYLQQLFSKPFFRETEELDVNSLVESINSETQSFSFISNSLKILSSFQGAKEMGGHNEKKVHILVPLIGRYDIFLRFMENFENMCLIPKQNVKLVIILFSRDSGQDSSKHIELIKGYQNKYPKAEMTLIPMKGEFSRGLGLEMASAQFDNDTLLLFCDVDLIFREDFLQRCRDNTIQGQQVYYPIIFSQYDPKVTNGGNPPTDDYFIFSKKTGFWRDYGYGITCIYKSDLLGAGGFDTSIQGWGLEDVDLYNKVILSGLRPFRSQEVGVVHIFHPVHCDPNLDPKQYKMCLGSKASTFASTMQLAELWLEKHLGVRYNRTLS

[3] = molecular target: T3, CHSY3^D261N/D263N, secreted construct aa157-aa882 (human, UniProt Q70JA7 157-882, D261N | D263N)
T3 construct: CHSY3, human, UniProt Q70JA7, residues 157-882, mutations in the DxD motif of the N-terminal GT domain; source: Freestyle 293-F cells, co-transfected with CHPF, secreted; purified by the same protocol as the wild-type complexes; not shown: SUMO, N-terminal, cleaved; His6, N-terminal, cleaved
T3 sequence (looked up): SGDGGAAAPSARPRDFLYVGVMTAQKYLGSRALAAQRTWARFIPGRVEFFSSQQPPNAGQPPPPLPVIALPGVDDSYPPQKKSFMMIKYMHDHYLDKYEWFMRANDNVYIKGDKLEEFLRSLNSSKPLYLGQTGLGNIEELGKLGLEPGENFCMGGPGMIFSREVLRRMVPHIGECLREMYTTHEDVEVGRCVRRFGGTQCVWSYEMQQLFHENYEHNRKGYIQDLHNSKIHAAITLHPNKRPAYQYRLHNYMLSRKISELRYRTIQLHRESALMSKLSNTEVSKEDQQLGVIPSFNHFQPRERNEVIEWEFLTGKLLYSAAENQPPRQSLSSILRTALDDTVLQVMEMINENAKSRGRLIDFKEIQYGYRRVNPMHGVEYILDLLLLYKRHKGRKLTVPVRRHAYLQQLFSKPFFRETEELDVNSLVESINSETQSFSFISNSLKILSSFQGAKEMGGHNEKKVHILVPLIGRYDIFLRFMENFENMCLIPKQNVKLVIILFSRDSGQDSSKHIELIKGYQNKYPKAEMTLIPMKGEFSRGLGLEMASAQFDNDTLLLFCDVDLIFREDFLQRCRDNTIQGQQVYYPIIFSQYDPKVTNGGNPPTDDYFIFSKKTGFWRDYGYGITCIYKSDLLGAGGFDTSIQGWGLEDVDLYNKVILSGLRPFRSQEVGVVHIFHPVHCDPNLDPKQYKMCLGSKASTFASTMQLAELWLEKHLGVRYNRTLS

Measured: binding result

B1: Chondroitin Polymerizing Factor (CHPF), secreted N-terminally truncated construct aa81-aa775 (domain or fragment, human, UniProt Q8IZ52 81-775, looked up)
chain: GENWEPRVLPYHPAQPGQAAKKAVRTRYISTELGIRQRLLVAVLTSQTTLPTLGVAVNRTLGHRLERVVFLTGARGRRAPPGMAVVTLGEERPIGHLHLALRHLLEQHGDDFDWFFLVPDTTYTEAHGLARLTGHLSLASAAHLYLGRPQDFIGGEPTPGRYCHGGFGVLLSRMLLQQLRPHLEGCRNDIVSARPDEWLGRCILDATGVGCTGDHEGVHYSHLELSPGEPVQEGDPHFRSALTAHPVRDPVHMYQLHKAFARAELERTYQEIQELQWEIQNTSHLAVDGDQAAAWPVGIPAPSRPASRFEVLRWDYFTEQHAFSCADGSPRCPLRGADRADVADVLGTALEELNRRYHPALRLQKQQLVNGYRRFDPARGMEYTLDLQLEALTPQGGRRPLTRRVQLLRPLSRVEILPVPYVTEASRLTVLLPLAAAERDLAPGFLEAFATAALEPGDAAAALTLLLLYEPRQAQRVAHADVFAPVKAHVAELERRFPGARVPWLSVQTAAPSPLRLMDLLSKKHPLDTLFLLAGPDTVLTPDFLNRCRMHAISGWQAFFPMHFQAFHPAVAPPQGPGPPELGRDTGRFDRQAASEACFYNSDYVAARGRLAAASEQEEELLESLDVYELFLHFSSLHVLRAVEPALLQRYRAQTCSARLSEDLYHRCLQSVLEGLGSRTQLAMLLFEQEQGNST
notes: CHPF, human, UniProt Q8IZ52, residues 81-775 (membrane-spanning helix removed); Construct in pHR-CMV-TetO2 with an N-terminal chicken RPTP sigma signal peptide, SUMO, 6x His and a 3C site; a second 3C site stands before the C-terminal twin streptavidin tag; also called Chondroitin sulfate synthase 2; source: Freestyle 293-F cells, co-transfected, secreted; purified from the supernatant (HisTrap, …)
binds: [1] | [2] | [3]
